Experimental findings from IntAct's records for PubMed 20489725 are described below.

The target of test [1] is obscn_human OBSCN (UniProt Q5VST9).
The target in test [2] is obsl1_human OBSL1 (UniProt O75147).
In test [3] the target is obscn_human OBSCN (UniProt Q5VST9). This is another data set of the same source.
Test [4] concerns the target obsl1_human OBSL1 (UniProt O75147). The source holds these as a separate data set.
Test [5] shares this target. The source holds these as a separate data set.
The target in test [6] is obscn_human OBSCN (UniProt Q5VST9). The source holds these as a separate data set.
The target is the same in test [7]. The source holds these as a separate data set.
In test [8] the target is obsl1_human OBSL1 (UniProt O75147). The source holds these as a separate data set.

obsl1_human OBSL1, sequence (O75147 whole entry): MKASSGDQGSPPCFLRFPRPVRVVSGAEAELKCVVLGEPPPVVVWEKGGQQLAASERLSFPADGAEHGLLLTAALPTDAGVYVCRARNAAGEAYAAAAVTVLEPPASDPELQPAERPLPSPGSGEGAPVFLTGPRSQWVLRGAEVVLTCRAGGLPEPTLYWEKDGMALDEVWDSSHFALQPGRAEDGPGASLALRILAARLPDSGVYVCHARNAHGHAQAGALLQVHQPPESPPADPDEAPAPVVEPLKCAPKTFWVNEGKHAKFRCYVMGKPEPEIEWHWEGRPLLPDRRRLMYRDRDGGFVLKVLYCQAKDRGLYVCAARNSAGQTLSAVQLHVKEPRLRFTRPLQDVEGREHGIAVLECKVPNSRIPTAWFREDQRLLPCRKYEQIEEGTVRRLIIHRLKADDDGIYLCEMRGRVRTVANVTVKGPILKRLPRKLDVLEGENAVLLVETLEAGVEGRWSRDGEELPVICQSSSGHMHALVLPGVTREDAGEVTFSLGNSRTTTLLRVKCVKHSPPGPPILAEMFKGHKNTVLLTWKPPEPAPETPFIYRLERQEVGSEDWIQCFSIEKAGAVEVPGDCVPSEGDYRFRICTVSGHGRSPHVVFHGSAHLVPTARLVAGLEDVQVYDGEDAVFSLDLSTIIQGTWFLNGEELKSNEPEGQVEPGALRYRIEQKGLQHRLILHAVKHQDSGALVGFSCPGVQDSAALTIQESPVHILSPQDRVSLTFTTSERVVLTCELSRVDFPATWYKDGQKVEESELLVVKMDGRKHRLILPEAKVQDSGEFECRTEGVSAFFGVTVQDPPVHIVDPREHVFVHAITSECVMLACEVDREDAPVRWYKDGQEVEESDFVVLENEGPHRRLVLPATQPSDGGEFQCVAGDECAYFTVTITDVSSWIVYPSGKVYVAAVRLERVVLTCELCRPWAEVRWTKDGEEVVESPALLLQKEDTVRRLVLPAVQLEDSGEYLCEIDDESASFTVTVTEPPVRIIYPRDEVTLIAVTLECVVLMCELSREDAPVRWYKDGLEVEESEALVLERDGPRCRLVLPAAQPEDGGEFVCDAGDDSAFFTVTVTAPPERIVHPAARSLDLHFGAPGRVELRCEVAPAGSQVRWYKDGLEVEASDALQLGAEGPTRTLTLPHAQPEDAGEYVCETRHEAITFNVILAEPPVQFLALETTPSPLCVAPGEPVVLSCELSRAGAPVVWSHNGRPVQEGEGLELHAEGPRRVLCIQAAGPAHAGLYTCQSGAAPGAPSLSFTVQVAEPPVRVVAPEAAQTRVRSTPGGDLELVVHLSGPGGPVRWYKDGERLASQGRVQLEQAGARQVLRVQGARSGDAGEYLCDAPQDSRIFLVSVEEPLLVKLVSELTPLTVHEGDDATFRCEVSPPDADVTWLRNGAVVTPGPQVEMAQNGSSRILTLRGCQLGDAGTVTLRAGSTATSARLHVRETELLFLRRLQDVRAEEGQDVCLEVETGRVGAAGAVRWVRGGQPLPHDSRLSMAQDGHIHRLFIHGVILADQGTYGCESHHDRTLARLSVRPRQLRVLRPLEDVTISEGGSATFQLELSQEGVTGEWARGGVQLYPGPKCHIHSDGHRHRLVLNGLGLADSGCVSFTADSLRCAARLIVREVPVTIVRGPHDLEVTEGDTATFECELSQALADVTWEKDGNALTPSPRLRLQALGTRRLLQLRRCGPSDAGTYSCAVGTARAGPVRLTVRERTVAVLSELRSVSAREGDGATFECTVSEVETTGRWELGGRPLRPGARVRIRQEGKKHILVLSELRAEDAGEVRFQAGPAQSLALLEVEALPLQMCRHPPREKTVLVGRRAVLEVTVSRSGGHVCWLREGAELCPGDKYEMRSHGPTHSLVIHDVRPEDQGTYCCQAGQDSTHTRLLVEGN

As to Titin (Homo sapiens), Q8WZ42 D34311R, in the test with obscn_human OBSCN [1], the “effect of a mutation on the interaction” value was “decreasing interaction”.

On to Titin (Homo sapiens), Q8WZ42 D34311S, for which the “effect of a mutation on the interaction” value with obsl1_human OBSL1 [2] is “decreasing interaction”.

With Titin (Homo sapiens), Q8WZ42 H34305P, the “effect of a mutation on the interaction” value in the test with obscn_human OBSCN [3] and in the test with obsl1_human OBSL1 [4] was “decreasing interaction” throughout.

Regarding Titin (Homo sapiens), Q8WZ42 I34306N, the “effect of a mutation on the interaction” value in the test with obsl1_human OBSL1 [5] and in the test with obscn_human OBSCN [6] was “decreasing interaction” each time.

As for Titin (Homo sapiens), Q8WZ42 R34348E, the “effect of a mutation on the interaction” value with obscn_human OBSCN [7] was “decreasing interaction”; with obsl1_human OBSL1 [8], “increasing interaction”.
